Data published in US7060677B1, “Antimicrobial activity of the first cationic cluster of human lactoferrin” (priority 1999, dated 2006).
Entries after “also recorded” stand apart in the source; their conditions may differ. Marks after values point to notes of the source that are not given here.

Assays:
[1] = system: the various bacteria (L. monocytogenes, antibiotic resistant S. aureus, K. pneumoniae, E. coli); experiment: Assay for antibacterial activity, statements on the various bacteria together; type: cell-based
Procedure: (§1) Listeria monocytogenes strain EGD. Klebsiella pneumoniae (43816), and Escherichia coli O54 were purchased from the American Type Culture Collection (Rockville, Md.). Antibiotic resistant S. aureus, K. pneumoniae and E. coli were cultured overnight in nutrient broth (Oxoid, Basingstoke, UK) at 37° C., diluted in tryptase soya broth (TSB, Oxoid) and cultured for an additional 2 h in a shaking waterbath at 37° C. L. monocytogenes was cultured overnight in brain heart infusion broth (BHI, Oxoid) at 37° C. diluted and cultured for an additional 2 h in a shaking waterbath at 37° C.
(§2) In short, bacteria were washed with phosphate-buffered saline (PBS) (pH 7.4) and diluted to a concentration of approximately 2×10^6 CFU/ml of phosphate-buffered saline (pH 6.0) supplemented with 0.1% (v/v) Tween-20 (hereafter designated as PBS-Tw). […] At various time intervals (range 0–4 h) after incubation at 37° C. the number of viable bacteria was determined microbiologically. As negative controls, bovine serum albumin (BSA; Sigma) or no peptide were included.

E. coli [2] = experiment: Assay for non-specific esterase activity (SFDA, FACS); type: cell-based, Escherichia coli; conditions: within 1–2 hours after addition
Procedure: (§3) As an indication of intracellular effects of hLF, hLF^−3N and related peptides (e.g., hLF (1–11) and hLF(21–31) in bacteria, the non-specific esterase activity of bacteria upon exposure to these antimicrobial proteins/peptides was assessed using 5-sulfofluorescein diacetate (SFDA; Molecular Probes, Leiden, The Netherlands) and FACS analysis (21). For these experiments, a stock solution of SFDA (1 mg/ml of ethanol) was prepared. Approximately 2×10^6 CFU of bacteria/ml of PBS-Tw were incubated with various concentrations of hLF, hLF^−3N and hLF related peptides for various intervals at 37° C., washed, incubated with 100 μM of SFDA/ml (final concentration ethanol 20% v/v) for 20 min at room temperature in the dark and then analyzed with a FACScan using the photomultiplier voltage of the first channel set at 700 V.

L. monocytogenes [3] = experiment: Assay for antibacterial activity (in vitro killing, viable count); type: cell-based, Listeria monocytogenes strain EGD; conditions: for CFU of bacteria, L. monocytogenes: 4 μM protein, approx. 1 × 10^6 CFU, PBS-Tw (pH 6.0), 3 h at 37° C., mean ± SD of 3–5 experiments
Procedure: as §1, §2

[4] = system: antibiotic resistant S. aureus; experiment: as above; type: cell-based, Staphylococcus aureus strain 2141; conditions: for CFU of bacteria, antibiotic resistant S. aureus: 4 μM protein, approx. 1 × 10^6 CFU, PBS-Tw (pH 6.0), 3 h at 37° C., mean ± SD of 3–5 experiments
Procedure: as §1, §2

[5] = Pharmacology of 99mTc-labeled hLF and peptides by scintigraphy in infected mice; conditions: mouse, in vivo
Procedure: Lactoferrins and related peptides were labeled with ^99mTechnetium (^99mTc) as described (22, 23). Briefly, 10 μl of a peptide solution (1 mg/ml of HAc) was added to 2 μl of an aseptic solution of 0.5 mg of stannous pyrophosphate/ml (Dept. of Clinical Pharmacy and Toxicology. Leiden University Medical Center (LUMC). Leiden. The Netherlands). Immediately thereafter, 4 μl of a solution of 10 mg of KBH4 (crystalline. Sigma) per ml of 0.1 M NaOH was added. After addition of 0.1 ml of ^99mTc-sodium pertechnetate solution (200 MBq/ml. Mallinckrodt Medical BV, Petten, The Netherlands), the mixture was gently stirred at ambient temperature for 30 min and then was ready for use. Quality control of the labeling was performed by RP-HPLC analysis using a Sep-Pak C18 cartridge (Waters, Milford, Mass.) in 20 ml of 0.01 M HAc. After rinsing with 20 ml of 0.01 M HAc, proteins and peptides were eluted with 2 ml of methanol (Sigma). […]
On the scintigrams, anatomically adjusted regions of interest (ROI) were drawn over the various organs and both thighs providing data about clearance of ^99mTc-peptides and accumulation at the site of infection. […] The amount of radioactivity in the heart was corrected for decay and expressed as a percentage of injected dose (% ID).

[6] = system: antibiotic resistant S. aureus; experiment: Experimental thigh muscle infection; type: in vivo, mice; conditions: FIG. 5
Procedure: In short, specific pathogen-free, male. Swiss mice weighing 20–25 g (Broekman Institute, Someren, The Netherlands) were anaesthetized with a single intraperitoneal injection of 0.1 ml of saline containing 1 mg fluanisone and 0.03 mg fentanyl citrate (Hypnorm, Janssen Pharmaceutics, Tilburg, The Netherlands). Preceding scintigraphy, a subcutaneous injection of 0.1 ml, containing 0.2 mg diazepam (Valium, Hoffmann-La Roche, Mijdrecht, The Netherlands) was administered. […] As a control, mice were injected with 0.2 ml of saline containing BSA or saline without any peptide. […] Next, the infected thigh muscles were removed and, after weighing, homogenized in 4 ml of PBS. Appropriate dilutions of the homogenates were applied onto diagnostic sensitivity test plates (Oxoid), and the number of colonies counted after an overnight culture at 37° C. Results are expressed as the number of CFUs per gram of infected tissue.

E. coli [7] = experiment: Assay for membrane permeability (propidium iodide, FACS); type: cell-based, Escherichia coli; conditions: period of analysis 4 h after addition of the protein
Procedure: (§4) Changes in the membrane permeability of bacteria upon exposure to hLF, hLF^−3N and related peptides were monitored after incubation with propidium iodide (PI; Sigma), using FACS analysis (12, 20). Stock solutions of PI (1 mg/ml of deionized water) were prepared. Approximately 2×10^6 bacteria/ml of PBS-Tw were incubated for various intervals at 37° C., washed, incubated for 5 min with 1 μg of PI/ml (final concentration) and then analyzed with a FACScan (Becton & Dickinson, CA) equipped with a argon-laser at 488 nm. The photomultiplier voltages were routinely set at 500 V for PI fluorescence intensity in the second channel. Data acquisition and analysis were controlled using the Lysis II software.

K. pneumoniae = experiment: Assay for antibacterial activity (in vitro killing, viable count); type: cell-based, Klebsiella pneumoniae (43816)
Procedure: as §1, §2

bacteria [8] = experiment: Assay for non-specific esterase activity (SFDA, FACS), bacteria in general; type: cell-based
E. coli [9] = experiment: Assay for antibacterial activity (in vitro killing, viable count); type: cell-based, Escherichia coli O54; conditions: for CFU of bacteria, E. coli: 4 μM protein, approx. 1 × 10^6 CFU, PBS-Tw (pH 6.0), 3 h at 37° C., mean ± SD of 3–5 experiments
Procedure: as §1, §2

L. monocytogenes [10] = experiment: Assay for non-specific esterase activity (SFDA, FACS); type: cell-based, Listeria monocytogenes; conditions: within 1–2 hours after addition; FIG. 4: 4 μM
Procedure: as §3

bacteria [11] = experiment: Assay for membrane permeability (propidium iodide, FACS), bacteria in general; type: cell-based
Procedure: as §4

L. monocytogenes [12] = experiment: Assay for membrane permeability (propidium iodide, FACS); type: cell-based, Listeria monocytogenes; conditions: period of analysis 4 h after addition of the protein
Procedure: as §4

B1: hLF: Natural human lactoferrin (Mr 77,000) purified from the fresh milk of a single donor, N-terminus intact; SEQ ID NO:1 (protein, listed as Homo sapiens)
chain: GRRRRSVQWCAVSQPEATKCFQWQRNMRKVRGPPVSCIKRDSPIQCIQAIAENRADAVTLDGGFIYEAGLAPYKLRPVAAEVYGTERQPRTHYYAVAVVKKGGSFQLNELQGLKSCHTGLRRTAGWNVPIGTLRPFLNWTGPPEPIEAAVARFFSASCVPGADKGQFPNLCRLCAGTGENKCAFSSQEPYFSYSGAFKCLRDGAGDVAFIRESTVFEDLSDEAERDEYELLCPDNTRKPVDKFKDCHLARVPSHAVVARSVNGKEDAIWNLLRQAQEKFGKDKSPKFQLFGSPSGQKDLLFKDSAIGFSRVPPRIDSGLYLGSGYFTAIQNLRKSEEEVAARRARVVWCAVGEQELRKCNQWSGLSEGSVTCSSASTTEDCIALVLKGEADAMSLDGGYVYTAGKCGLVPVLAENYKSQQSSDPDPNCVDRPVEGYLAVAVVRRSDTSLTWNSVKGKKSCHTAVDRTAGWNIPMGLLFNQTGSCKFDEYFSQSCAPGSDPRSNLCALCIGDEQGENKCVPNSNERYYGYTGAFRCLAENAGDVAFVKDVTVLQNTDGNNNEAWAKDLKLADFALLCLDGKRKPVTEARSCHLAMAPNHAVVSRMDKVERLKQVLLHQQAKFGRNGSDCPDKFCLFQSETKNLLFNDNTECLARLHGKTTYEKYLGPQYVAGITNLKKCSTSPLLEACEFLRK
[1]; 4 μM, FIGS. 1C–1E, p<0.05
  Speed of killing these bacteria, natural hLF compared with hLF^−3N: faster (p<0.05) than hLF^−3N
[1]; 4° C.
  Effect on the number of viable bacteria at 4° C.: no affect; also recorded: not able to kill bacteria
[1]; dose-dependent killing, FIGS. 1A–1B, p<0.05
  Potency in killing, natural hLF compared with hLF^−3N: more potent (p<0.05) than hLF^−3N
E. coli [2]
  Intracellular non-specific esterase activity of E. coli: not
L. monocytogenes [3]
  CFU of bacteria, L. monocytogenes: 2.4 ± 0.9 × 10^4*^,** CFU
L. monocytogenes [3]; listed as hLF^3N
  CFU of bacteria, L. monocytogenes: 4.8 ± 2.4 × 10^5 CFU
L. monocytogenes [3]; dose-dependent, FIGS. 1A–1E
  Killing of L. monocytogenes by the protein (in words): killed
[4]
  CFU of bacteria, antibiotic resistant S. aureus: 6.9 ± 2.1 × 10^4*^,** CFU
[4]; listed as hLF^3N
  CFU of bacteria, antibiotic resistant S. aureus: 5.6 ± 1.9 × 10^5 CFU
[4]; dose-dependent, FIGS. 1A–1E
  Killing of antibiotic resistant S. aureus by the protein (in words): killed
[5]
  Amount at the site of infection, hLF compared with hLF^−3N: did not differ
  mean t1/2 of removal from the circulation: approximately 19 min
[6]; mice infected with antibiotic resistant S. aureus, 24 h after injection
  Amount at which maximum effects on viable bacteria were seen: 1 nmol
[6]; within 24 h after intravenous injection, thigh muscle
  Number of viable bacteria in mice infected with antibiotic resistant S. aureus: reduced in a dose-dependent fashion
E. coli [7]
  Change of the membrane permeability of E. coli: not followed by a significant change
K. pneumoniae; 4 μM protein, approx. 1 × 10^6 CFU, PBS-Tw (pH 6.0), 3 h at 37° C., mean ± SD of 3–5 experiments, listed as hLF^3N
  CFU of bacteria, K. pneumoniae: 6.8 ± 1.5 × 10^5 CFU
K. pneumoniae; dose-dependent, FIGS. 1A–1E
  Killing of K. pneumoniae by the protein (in words): killed
Bacteria [8]
  Non-specific esterase activity of the bacteria (conclusions): inhibited
Bacteria [8]; 4° C.
  Effect on the non-specific esterase activity at 4° C.: no affect; also recorded: not able
E. coli [9]
  CFU of bacteria, E. coli: 3.0 ± 0.3 × 10^6 CFU
E. coli [9]; listed as hLF^3N
  CFU of bacteria, E. coli: 9.5 ± 8.2 × 10^5 CFU
E. coli [9]; Table 1, even at concentrations up to 12 μM
  Killing of E. coli by the protein (in words): not killed
L. monocytogenes [10]
  Intracellular non-specific esterase activity of L. monocytogenes: inhibited
Bacteria [11]
  Membrane permeability of the bacteria, proteins (conclusions): without affecting
L. monocytogenes [12]
  Change of the membrane permeability of L. monocytogenes: not followed by a significant change
